Data on 1 substance can be found in PMC5582136.

By koff is commonly meant the first-order rate constant of dissociation.

Test [1] has as its target fibrillin-1 cbEGF22-TB4 domain pair (residues 1486–1605) (human) (UniProt P35555). Nature of the test: SPR.
Test [2] has as its target fibrillin-1 TB4-cbEGF23 domain pair (residues 1527–1647) (human) (UniProt P35555). Nature of the test: SPR. Background: SPR reads the build-up and loss of mass on a sensor chip optically.

As to “native αVβ3 integrin purified from human placental extract (from UniProt P05106 27-788) (receptor)”, in test [1], the fold difference in Ka against TB4-cbEGF23 came to 2 fold. In addition, in test [2], the koff turned out to be 0.0016 s⁻¹.
